Laboratory results published in paper PMC4477857 (The Journal of Cell Biology, 2015).

Biological target: T1, purified recombinant STIL (human, UniProt Q15468 1-1287)
T1 sequence (looked up): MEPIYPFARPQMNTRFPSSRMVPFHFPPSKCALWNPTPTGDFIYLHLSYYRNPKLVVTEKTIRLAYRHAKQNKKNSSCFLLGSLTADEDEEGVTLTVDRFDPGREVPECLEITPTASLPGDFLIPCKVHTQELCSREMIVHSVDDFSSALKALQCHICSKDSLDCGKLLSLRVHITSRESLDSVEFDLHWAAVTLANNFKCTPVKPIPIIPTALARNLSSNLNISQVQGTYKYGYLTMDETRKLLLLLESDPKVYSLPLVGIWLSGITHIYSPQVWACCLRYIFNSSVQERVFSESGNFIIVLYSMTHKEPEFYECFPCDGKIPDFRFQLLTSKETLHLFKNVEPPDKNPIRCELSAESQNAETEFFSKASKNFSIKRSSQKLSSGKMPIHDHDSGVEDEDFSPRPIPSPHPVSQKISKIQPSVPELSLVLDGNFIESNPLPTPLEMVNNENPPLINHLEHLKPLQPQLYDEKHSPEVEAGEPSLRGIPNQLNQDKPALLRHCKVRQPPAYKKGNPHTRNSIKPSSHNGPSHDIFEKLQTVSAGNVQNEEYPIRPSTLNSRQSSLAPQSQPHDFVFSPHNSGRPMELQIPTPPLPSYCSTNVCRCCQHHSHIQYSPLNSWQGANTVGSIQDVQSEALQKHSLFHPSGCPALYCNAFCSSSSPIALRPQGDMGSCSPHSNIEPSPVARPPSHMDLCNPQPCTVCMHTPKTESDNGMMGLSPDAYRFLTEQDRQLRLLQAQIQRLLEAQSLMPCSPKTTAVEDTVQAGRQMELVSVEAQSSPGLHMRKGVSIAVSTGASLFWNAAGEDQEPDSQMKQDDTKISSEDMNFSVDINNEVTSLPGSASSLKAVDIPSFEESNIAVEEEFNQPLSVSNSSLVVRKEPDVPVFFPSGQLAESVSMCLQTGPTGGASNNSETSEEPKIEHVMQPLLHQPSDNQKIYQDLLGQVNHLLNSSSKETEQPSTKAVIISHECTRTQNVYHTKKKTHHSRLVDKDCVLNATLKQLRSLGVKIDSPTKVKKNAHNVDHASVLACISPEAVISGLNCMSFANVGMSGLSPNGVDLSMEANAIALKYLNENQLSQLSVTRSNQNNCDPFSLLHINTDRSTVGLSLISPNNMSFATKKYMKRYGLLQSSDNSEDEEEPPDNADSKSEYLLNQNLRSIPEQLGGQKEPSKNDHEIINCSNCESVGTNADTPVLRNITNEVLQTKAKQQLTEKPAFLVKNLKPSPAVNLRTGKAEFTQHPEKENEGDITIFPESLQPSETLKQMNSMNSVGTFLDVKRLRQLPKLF
Assay: pull-down

binding result: binds
B1: GST-hPlk4 (enzyme, human, UniProt O00444 1-970, looked up)
chain: MATCIGEKIEDFKVGNLLGKGSFAGVYRAESIHTGLEVAIKMIDKKAMYKAGMVQRVQNEVKIHCQLKHPSILELYNYFEDSNYVYLVLEMCHNGEMNRYLKNRVKPFSENEARHFMHQIITGMLYLHSHGILHRDLTLSNLLLTRNMNIKIADFGLATQLKMPHEKHYTLCGTPNYISPEIATRSAHGLESDVWSLGCMFYTLLIGRPPFDTDTVKNTLNKVVLADYEMPSFLSIEAKDLIHQLLRRNPADRLSLSSVLDHPFMSRNSSTKSKDLGTVEDSIDSGHATISTAITASSSTSISGSLFDKRRLLIGQPLPNKMTVFPKNKSSTDFSSSGDGNSFYTQWGNQETSNSGRGRVIQDAEERPHSRYLRRAYSSDRSGTSNSQSQAKTYTMERCHSAEMLSVSKRSGGGENEERYSPTDNNANIFNFFKEKTSSSSGSFERPDNNQALSNHLCPGKTPFPFADPTPQTETVQQWFGNLQINAHLRKTTEYDSISPNRDFQGHPDLQKDTSKNAWTDTKVKKNSDASDNAHSVKQQNTMKYMTALHSKPEIIQQECVFGSDPLSEQSKTRGMEPPWGYQNRTLRSITSPLVAHRLKPIRQKTKKAVVSILDSEEVCVELVKEYASQEYVKEVLQISSDGNTITIYYPNGGRGFPLADRPPSPTDNISRYSFDNLPEKYWRKYQYASRFVQLVRSKSPKITYFTRYAKCILMENSPGADFEVWFYDGVKIHKTEDFIQVIEKTGKSYTLKSESEVNSLKEEIKMYMDHANEGHRICLALESIISEEERKTRSAPFFPIIIGRKPGSTSSPKALSPPPSVDSNYPTRERASFNRMVMHSAASPTQAPILNPSMVTNEGLGLTTTASGTDISSNSLKDCLPKSAQLLKSVFVKNVGWATQLTSGAVWVQFNDGSQLVVQAGVSSISYTSPNGQTTRYGENEKLPDYIKQKLQCLSSILLMFSNPTPNFH
